Assay results published in patent US12427188B2, “Pyocyanine demethylases and related phenazine degrading agents compositions, methods and systems for interfering with viability of bacteria” (priority 2020, dated 2025).

Experiments:
[1] = system: P. aeruginosa strain PA14; assay: PodA and tobramycin liquid (planktonic) synergy experiments; assay type: cell-based, Pseudomonas aeruginosa; settings: LB; PodA10 5 μM; compared to individual antibiotic controls
Procedure: Pseudomonas aeruginosa PodA and tobramycin liquid synergy experiments. For planktonic synergy experiments, starter cultures were grown 24 h at 37° C. shaking in LB. Stationary phase cultures (usually between OD500 4-6) were aliquoted (100 μL) into 96-well clear bottom flat well plates (VWR). Antibiotics and PodA were diluted into stock concentrations to pipette 5 μL antibiotic and 2 μL PodA per well. Antibiotics were diluted into water and PodA was diluted into 50 mM HEPES (pH 7.5). Plates were incubated in a humidity Tupperware chamber lined with wet paper towel at 37° C. for 10 h. After incubation, wells were pipetted to resuspend, and each well was diluted 1:10 into fresh LB. From that mixture, 10 μL of diluted cells were pipetted into 90 μL fresh LB in 96-well flat bottom plates. Mineral Oil, light (65 μL undiluted, Sigma-Aldrich) was pipetted onto top of cultures to prevent dehydration and allow for oxygen diffusion. Microtiter plates were incubated at 37° C. inside a temperature-controlled chamber of a BioTek Synergy 4 plate reader. […] Cells from each 10 μL drips dilution were counted if colonies were between 10-100.
PodA10 and tobramycin cell treatments (same samples from FIG. 8) were diluted in series and dilutions were plated onto LB agar. Cells were counted if a dilution contained 10-100 colonies. […]

[2] = Activity after boiling (kinetic stability); assay type: physicochemical; settings: after 30 and 60 min of boiling; PodA 3 μM, PYO 100 μM
Procedure: FIG. 13. Activity of WT PodA30-162 and PodA10 after boiling. Protein was boiled as described in Materials and Methods, followed by an activity assay with PodA (3 μM) and PYO (100 μM) in a Spectramax M3 plate reader monitoring PYO absorbance (690 nm) overtime. Specific activity (nmol min-1 mg-1) was calculated for each sample. Replicates of PodA^WT un-boiled were averaged and set to 100% activity (dashed line). All other activities of boiled samples were compared to this value and presented as a percentage. Data represent technical triplicates and error bars represent standard deviation. A t-test was completed, with * representing a p-value<0.05 and ns representing not significant.
Due to the high thermal stability of PodA, stability assays that rely on monitoring protein unfolding over a temperature gradient were not suitable for the related testing. Therefore the enzyme's kinetic stability were analyzed by boiling WT PodA41-162 and PodA10 and measuring activity of each protein after specified boiling times. […] We also noted that several designed mutations in PodA8 and PodA10 were not prevalent in a multiple-sequence alignment of PodA homologs (FIG. 14), indicating the importance of the atomistic calculations to design success

B1: PodA10: Designed PodA41-162 variant: A53N, I73T, A87V, M99V, A129T; SEQ ID NO: 4 (protein)
chain: MVTMTLDVKNDQVNKHDFGKPGMDVGDMDIFSDTLSVDGKQVGYDGGVCFFTNVTPDNPVTYCELTIHLDAGEIFARSLTPATLAPFTMTITGGTGEYANSKGELTVSGVATPDEKYELKLTK
[1]
  cell viability (CFUs): did not increase cell death
[2]
  Activity after boiling: significantly higher activity compared to WT PodA30-162
